According to paper PMC8213676, “OsJAZ11 regulates phosphate starvation responses in rice”:

Target: OsPHR2-6XHIS (Oryza sativa, UniProt Q6Z156 1-426)
Test: EMSA; 0.7 ug protein, 50 ng probe; 15 mM HEPES pH 8.0, 30 mM KCl, 1 mM MgCl2, 0.2 mM EDTA, 0.02 mM DTT, 0.6% glycerol, 1 ug poly(dI-dC) in 20 ul, 20 °C 30 min (1 h with 15 mM NaH2PO4 for inhibition assay); gel 0.5X TBE at 4 °C
Conditions: protein: recombinant; tags: 6xHis (pET28a); chain copies: 2; label: DIG 3' end; blunt

Chain of OsPHR2-6XHIS (Q6Z156 whole entry): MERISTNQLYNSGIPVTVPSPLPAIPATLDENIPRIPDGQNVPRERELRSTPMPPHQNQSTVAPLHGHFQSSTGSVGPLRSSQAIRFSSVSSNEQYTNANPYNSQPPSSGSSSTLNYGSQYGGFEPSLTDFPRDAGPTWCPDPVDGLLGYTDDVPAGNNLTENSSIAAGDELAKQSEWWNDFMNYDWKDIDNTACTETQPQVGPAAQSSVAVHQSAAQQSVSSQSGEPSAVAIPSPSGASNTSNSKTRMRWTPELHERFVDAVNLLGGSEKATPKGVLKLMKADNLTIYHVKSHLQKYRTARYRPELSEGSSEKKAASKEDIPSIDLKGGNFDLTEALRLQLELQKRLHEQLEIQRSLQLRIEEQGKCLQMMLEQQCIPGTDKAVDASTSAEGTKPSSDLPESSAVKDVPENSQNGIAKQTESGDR

B1: OsSPX2 promoter P1BS probe (dsDNA)
DNA 1: TATCCCCGTCACGAATATTCCTCTTCCTCC
DNA 2: GGAGGAAGAGGAATATTCGTGACGGGGATA
B1: binds.
